T1: Full Axl (ECD domain of human Axl) (human, UniProt P30530 26-451)
T1 construct: also called human Axl ECD
T1 sequence: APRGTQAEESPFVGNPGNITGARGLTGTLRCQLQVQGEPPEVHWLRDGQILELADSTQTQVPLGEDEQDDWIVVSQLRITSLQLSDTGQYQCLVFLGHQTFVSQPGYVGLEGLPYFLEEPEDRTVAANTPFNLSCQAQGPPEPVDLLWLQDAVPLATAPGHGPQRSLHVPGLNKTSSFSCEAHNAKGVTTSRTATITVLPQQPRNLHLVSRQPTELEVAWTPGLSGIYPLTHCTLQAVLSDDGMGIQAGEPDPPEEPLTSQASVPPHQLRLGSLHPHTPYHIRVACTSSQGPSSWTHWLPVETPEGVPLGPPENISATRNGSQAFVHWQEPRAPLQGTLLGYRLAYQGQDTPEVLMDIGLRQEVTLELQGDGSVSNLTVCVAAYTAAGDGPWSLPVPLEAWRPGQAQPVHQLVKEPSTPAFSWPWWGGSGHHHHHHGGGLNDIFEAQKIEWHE

T2: endogenous murine MerTK on bone marrow-derived macrophages (mouse, UniProt Q60805 19-994)
T2 construct: whole, on cells; MFI on MerTK KO BMDM subtracted; also called BMDM WT-KO
T2 sequence (looked up): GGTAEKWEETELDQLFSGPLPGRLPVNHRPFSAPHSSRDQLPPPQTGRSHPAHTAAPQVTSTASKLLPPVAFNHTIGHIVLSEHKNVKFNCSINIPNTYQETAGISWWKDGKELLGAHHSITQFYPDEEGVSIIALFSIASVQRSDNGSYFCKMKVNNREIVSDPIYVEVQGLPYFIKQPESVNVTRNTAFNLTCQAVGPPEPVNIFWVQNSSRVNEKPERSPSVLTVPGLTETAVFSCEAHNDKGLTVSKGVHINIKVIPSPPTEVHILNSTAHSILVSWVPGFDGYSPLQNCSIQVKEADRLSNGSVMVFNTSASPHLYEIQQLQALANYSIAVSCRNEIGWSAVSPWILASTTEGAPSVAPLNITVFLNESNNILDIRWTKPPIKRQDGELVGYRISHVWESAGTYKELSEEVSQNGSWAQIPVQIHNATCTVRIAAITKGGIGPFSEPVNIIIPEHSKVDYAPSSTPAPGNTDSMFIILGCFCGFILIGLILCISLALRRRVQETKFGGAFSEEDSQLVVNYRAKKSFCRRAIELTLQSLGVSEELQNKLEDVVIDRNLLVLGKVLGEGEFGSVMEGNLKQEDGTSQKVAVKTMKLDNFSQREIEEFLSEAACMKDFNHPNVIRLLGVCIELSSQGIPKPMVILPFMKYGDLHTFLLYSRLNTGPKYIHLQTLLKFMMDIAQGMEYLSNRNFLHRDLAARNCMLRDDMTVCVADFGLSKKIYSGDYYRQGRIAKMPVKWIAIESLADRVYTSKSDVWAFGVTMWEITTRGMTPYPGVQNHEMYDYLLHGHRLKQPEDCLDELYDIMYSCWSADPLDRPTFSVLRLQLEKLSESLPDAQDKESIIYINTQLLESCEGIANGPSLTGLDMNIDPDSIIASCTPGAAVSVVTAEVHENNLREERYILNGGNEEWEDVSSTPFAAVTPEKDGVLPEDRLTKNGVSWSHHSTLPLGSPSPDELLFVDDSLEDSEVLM

T3: mouse MerTK overexpressed on CHO cells (mouse, UniProt Q60805 19-994)
T3 construct: whole, on cells; also called CHO-muMerTK OE
T3 sequence (looked up): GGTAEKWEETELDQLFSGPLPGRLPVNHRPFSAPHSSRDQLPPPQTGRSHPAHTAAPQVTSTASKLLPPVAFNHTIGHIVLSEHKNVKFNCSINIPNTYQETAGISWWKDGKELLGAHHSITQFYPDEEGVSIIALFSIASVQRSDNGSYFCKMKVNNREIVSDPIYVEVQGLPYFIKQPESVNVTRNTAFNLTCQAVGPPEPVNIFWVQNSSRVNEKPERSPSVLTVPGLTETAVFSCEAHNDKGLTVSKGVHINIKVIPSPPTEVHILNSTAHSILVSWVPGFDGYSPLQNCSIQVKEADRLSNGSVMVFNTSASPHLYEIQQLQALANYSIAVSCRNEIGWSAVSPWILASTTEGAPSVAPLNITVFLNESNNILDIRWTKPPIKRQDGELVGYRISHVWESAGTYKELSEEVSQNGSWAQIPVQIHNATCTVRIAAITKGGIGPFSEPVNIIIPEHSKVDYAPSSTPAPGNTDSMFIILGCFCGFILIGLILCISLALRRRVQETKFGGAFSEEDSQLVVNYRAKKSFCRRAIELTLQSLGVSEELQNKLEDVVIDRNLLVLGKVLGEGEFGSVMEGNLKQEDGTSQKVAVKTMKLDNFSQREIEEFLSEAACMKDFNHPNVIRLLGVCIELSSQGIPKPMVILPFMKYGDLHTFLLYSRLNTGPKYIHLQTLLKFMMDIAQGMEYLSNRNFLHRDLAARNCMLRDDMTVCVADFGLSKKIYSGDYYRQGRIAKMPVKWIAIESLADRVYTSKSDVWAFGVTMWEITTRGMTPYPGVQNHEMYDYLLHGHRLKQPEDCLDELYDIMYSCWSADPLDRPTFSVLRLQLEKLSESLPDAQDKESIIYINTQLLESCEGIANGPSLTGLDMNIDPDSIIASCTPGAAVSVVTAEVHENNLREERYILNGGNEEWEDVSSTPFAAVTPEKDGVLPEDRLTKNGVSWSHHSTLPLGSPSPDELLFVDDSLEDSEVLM

T4: MerTK N-terminal ECD Half-and-half chimera (human)
T4 construct: tested as culture supernatant; also called MerTK N-term half-and-half chimera; MerTK N-terminal ECD (NT-Ig1-Ig2) + Axl C-terminal ECD (FN1-FN2-JM)
T4 chain: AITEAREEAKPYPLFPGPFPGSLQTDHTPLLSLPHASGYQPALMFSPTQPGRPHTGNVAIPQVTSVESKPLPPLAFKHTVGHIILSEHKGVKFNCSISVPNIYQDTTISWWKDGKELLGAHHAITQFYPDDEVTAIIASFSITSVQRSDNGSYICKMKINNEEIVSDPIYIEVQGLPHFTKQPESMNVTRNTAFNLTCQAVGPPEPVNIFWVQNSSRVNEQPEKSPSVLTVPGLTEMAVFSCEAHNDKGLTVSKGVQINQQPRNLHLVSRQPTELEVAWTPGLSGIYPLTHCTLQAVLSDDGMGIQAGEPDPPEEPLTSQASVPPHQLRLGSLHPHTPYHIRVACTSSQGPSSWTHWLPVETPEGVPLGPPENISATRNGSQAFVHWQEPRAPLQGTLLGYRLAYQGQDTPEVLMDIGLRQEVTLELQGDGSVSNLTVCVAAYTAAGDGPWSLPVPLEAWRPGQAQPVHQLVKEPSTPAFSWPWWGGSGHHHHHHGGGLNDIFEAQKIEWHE

T5: recombinant murine MerTK extracellular domain (mouse, UniProt Q60805 19-497)
T5 construct: also called Mouse MerTK; murine MerTK ECD; not shown: polyHis or TEVS/Thrombin/murine IgG2a-Fc tag
T5 sequence: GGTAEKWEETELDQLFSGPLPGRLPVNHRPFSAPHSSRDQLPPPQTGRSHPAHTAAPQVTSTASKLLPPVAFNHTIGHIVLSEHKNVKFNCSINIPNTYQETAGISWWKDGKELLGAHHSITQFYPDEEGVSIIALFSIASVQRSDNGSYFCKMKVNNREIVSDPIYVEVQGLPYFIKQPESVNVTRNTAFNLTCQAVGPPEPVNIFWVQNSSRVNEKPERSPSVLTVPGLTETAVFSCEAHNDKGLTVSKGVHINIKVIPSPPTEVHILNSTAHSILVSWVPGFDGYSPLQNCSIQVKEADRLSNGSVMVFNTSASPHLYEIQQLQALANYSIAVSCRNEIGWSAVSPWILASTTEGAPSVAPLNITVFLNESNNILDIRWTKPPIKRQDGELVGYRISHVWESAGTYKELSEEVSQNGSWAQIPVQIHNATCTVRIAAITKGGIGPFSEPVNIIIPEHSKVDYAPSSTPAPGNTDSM


Legend:
[1] = target: T1, Full Axl (ECD domain of human Axl); test: SPR (data not shown)
Method: (§1) Binding of anti-MerTK antibodies of the present disclosure to these domain-swapped chimera or deletion mutants was tested by Surface Plasmon Resonance (SPR) using Carterra LSA. Purified anti-MerTK antibodies were immobilized in duplicate on a HC30M chip (Carterra) by amine coupling, following the manufacturer's instructions (described previously).
(§2) Supernatants containing the constructs were diluted 1:1 with running buffer containing 0.5 mg/mL BSA (HBS-TE, Carterra; BSA, Sigma) and injected over the immobilized antibodies. The surface was regenerated with 10 mM Glycine pH2.0 after each construct injection. Sensorgrams were analyzed using Carterra Epitope software to identify patterns of construct binding. Loss of binding to MerTK constructs with domains deleted or swapped in from Axl and/or gain of binding to Axl constructs with MerTK domains swapped in were evaluated. Data from these studies were used to construct a domain binding map for anti-MerTK antibodies and their binding to various domains of human MerTK.

[2] = target: T2, endogenous murine MerTK on bone …; test: FACS, mouse BMDM, WT minus MerTK KO
Method: (§3) To determine whether recombinant anti-human MerTK antibodies of the present disclosure bind to human MerTK endogenously expressed on SK-MEL-5 cells and CHO cells overexpressing mouse MerTK (CHO-muMerTK OE cells), as compared to A375 and parental CHO cells as negative controls, the following experiments were performed. SK-MEL-5 cells, A375 cells, CHO-muMerTK OE cells, and CHO parental cells were plated at 100,000 cells/well. Anti-MerTK antibodies were added to the cells at 10 μg/ml. After 60 minutes on ice, cells were washed and then stained with PE-conjugated goat anti-human IgG antibody (Southern Biotech Cat #2040-09, Birmingham, AL) in the presence of Fc block solution on ice for 30 minutes, and then washed twice with cold FACS buffer (2% FBS in PBS). Mouse anti-human MerTK-PE conjugated (Biolegend, Clone 590H11G1E3) or anti-mouse MerTK-PE conjugated (ThermoFisher, Clone DS5MMER) antibodies were used as positive controls. Stained cells were acquired on a BD FACS Canto II cytometer and the mean fluorescence intensity (MFI) was calculated with FlowJo.
To confirm anti-MerTK antibody binding to endogenous murine MerTK, bone marrow-derived macrophages (BMDM) were isolated from MerTK wild type (WT) and knockout (KO) mice (The Jackson Laboratory, Cat #011122) using standard protocols. Briefly, cells isolated from the bone marrow were plated in the presence of 50 ng/ml M-CSF (R&D Systems, Cat #416-ML) for seven days to allow for differentiation into macrophages. Cell staining, FACs, and MFI were performed and calculated as described above.

[3] = target: T3, mouse MerTK overexpressed on CHO cells; test: FACS, CHO-muMerTK OE cells, 10 ug/ml
Method: as §3

[4] = target: T4, MerTK N-terminal ECD Half-and-half …; test: SPR, construct supernatant over immobilised Ab
Method: as §1, §2

[5] = target: T5, recombinant murine MerTK extracellular …; test: SPR Carterra LSA, Ab immobilised
Method: Binding kinetics of anti-MerTK IgG1 antibodies of the present disclosure to human, cyno, and murine MerTK were evaluated using a Carterra LSA instrument (Carterra, Salt Lake City, UT). […] A HC200M sensor chip (Carterra) was activated using the single channel flow cell with a 7-minute injection of a 1:1:1 mixture of 100 mM MES pH 5.5, 100 mM sulfo-NHS, 400 mM EDC (all reconstituted in MES pH 5.5; 100 μl of each mixed in vial immediately before running assay). After switching to the multi-channel array flow cell, the antibodies were injected over the activated chip in three 96-spot arrays for 10 minutes each. The remaining unconjugated active groups on the chip were then blocked by injecting 1M Ethanolamine pH 8.5 (Carterra) for 7 minutes using the single channel flow cell. The resulting sensor chip contained three spots for each antibody, at three different densities. Two independent experiments were performed as follows, resulting in an N of between one and six determinations for each antibody. Spots that yielded less than 25 RU of analyte binding were excluded from further analysis.
After priming with running buffer (HBS-TE, Carterra) with 0.5 mg/ml BSA (Sigma), the immobilized anti-MerTK antibodies were tested for their ability to bind to several forms of recombinant MerTK extracellular domain, including human, cynomolgus, and mouse orthologs as described above. Estimates of affinity were generated by injecting each analyte over the entire antibody array using the single channel flow cell. MerTK analytes were diluted with running buffer, in a series of six, three-fold serial dilutions starting from 1 μM for human and cynomolgus MerTK, and 600 nM for mouse MerTK. Analytes were injected for 5 minutes, and dissociation was followed for 10 minutes. After each analyte injection, antibodies were regenerated with either Protein A/G Elution Buffer (Thermo) with 1M NaCl (Teknova), or with 10 mM Glycine pH 2.5. Three buffer blanks were run between each series (one species per series). Data were processed and analyzed using NextGenKIT high-throughput kinetics analysis software (Carterra).

Row | binding result [1] | MFI [2] [MFI] | MFI [3] [MFI] | binding result [4] | Binder | binding result [5]
1 | no binding | 737 | 240 | no binding | MTK-205 (antibody, human IgG1, V domains shown) VH: EVQLQQSGPELVKPGASVKISCKTSGYTFTEYIMHWVKQSHGKSLEWIGGINPNNLGIIYNQKFKGKATLTVDKSSSTAYMELRSLTSEDSEVYYCARDGYFGFDYWGQGTTLKVSS VL: DIVMTQSHKFMSTSVGDRVSITCKASQDVGTSVAWYQQKPGHSPKLLIYWTSTRRTGVPDRFTGSGSGTDFTLTISNVQSEDLADYFCHQYNSYPLTFGAGTKLELK | –
2 | no binding | – | – | no binding | MTK-217 (antibody, human IgG1, V domains shown) VH: QVQLQQPGTEVVKPGASVKMSCRASGYTFTSYWITWVKQRPGQGLEWIGDIHPGSGINNYNEKFRSKATLTVDTSSSTVYMELSSLTSEDSAVYYCAKGGYYGSSYYVMDYWGQGTSVTVSS VL: DILLTQSPAILSVSPGERVSFSCRASQTIGTSIHWYQQRTNDSPRLLIKYASESISGIPSRFSGSGSGTDFTLSINSVESEDIADYYCQQSNDWPYTFGGGTKLEIK | no binding (tested: analyte up to 600 nM)
